Experimental findings from patent publication US20220396758 are described below.

In series [1] the test system is substrate protein S1 (single N-terminal Smt3 domain, 65-amino-acid charged flexible tail, C-terminal 11 amino acid ssrA tag).
For series [2], the system named is substrate protein S2-35 (two Smt3 domains separated by a 35 amino acid linker, charged tail, C-terminal ssrA tag).
In series [3] the test system is substrate protein S2-148 (two Smt3 domains separated by an extended 148 amino acid linker, charged tail, C-terminal ssrA tag).

“covalently-linked trimer of an N-terminal truncated ClpX variant (ClpX-ΔN3)”: in series [1], the “ClpX-dependent ionic current ramp (ramping state iii), average current” value is recorded as “a progressive downward current ramp reaching an average of ~10 pA with a median duration of 4.3 seconds”; the “ClpX-dependent ionic current ramp (ramping state iii), median duration” value was “a progressive downward current ramp reaching an average of ~10 pA with a median duration of 4.3 seconds”; the “ClpX-dependent ionic current ramp (ramping state iii), number of events” value is “This current ramp was observed with protein S1 a total of 45 times over ~5.5 hours of experimentation when ClpX and ATP were present; in contrast, the ramp was never observed following state ii when ClpX and ATP were absent from the trans solution over ~2.3 hours of experimentation”. In addition, in series [2], the “second ramping state vi, ionic current” value is listed as “This was followed by a ~8.5 pA state (FIG. 2C, vi) that closely resembled ramping state iii”; the “translocation events that included ramping state iii, number of events” value is “Translocation events that included ramping state iii were observed 62 times for protein S2-35 (7.3 hours of experimentation) ... when ClpX and ATP were present. In the absence of ClpX/ATP, these ramping states were never observed for S2-35 (1.7 hours of experimentation)”. Besides, in series [3], the “translocation events that included ramping state iii, number of events” value is “Translocation events that included ramping state iii were observed ... 66 times for protein S2-148 (4.3 hours of experimentation), when ClpX and ATP were present. In the absence of ClpX/ATP, these ramping states were never observed ... for S2-148 (1.2 hours of experimentation)”.
